Substitutions are numbered along the chain they refer to.

B1: VHg9/VLg11 (antibody, human IgG1, V domains shown)
VH: EVQLVESGGGLVKPGGSLRLSCAASGFTFSSYAMSWVRQAPGKGLEWVSTISDGDSYSYFPDSVKDRFTISRDNAKNSLYLQMNSLRAEDTAVYYCARDRIYGSVQYYAMDYWGQGTLVTVSS
VL: DIVMTQSPDSLAVSLGERATINCRASESVEFSGTSLMQWYQQKPGQPPKLLIYAASNVESGVPDRFSGSGSGTDFTLTISSLQAEDVAVYYCQQSRKLPYTFGQGTKLEIK
notes: human IgG1
B2: VHg1/VLg12 (antibody, human IgG1, V domains shown)
VH: B1 VH with E1Q, E6Q, K13Q, A75S, S78T, A92S
VL: EIVLTQSPATLSLSPGERATLSCRASESVEFSGTSLMQWYQQKPGQAPRLLIYAASNVESGIPARFSGSGSGTDFTLTISSLEPEDFAVYYCQQSRKLPYTFGQGTKLEIK
notes: human IgG1
B3: VHg5/VLg5 (antibody, human IgG1, V domains shown)
VH: B1 VH with E1Q, V5Q, E6Q, K13Q, P14A, S30T, S49A, T69I, Y80F, Q115R
VL: B2 VL with A9G, A19G, A64D, G72E, S81R, F87L, K107R
B4: VHg1/mVL (antibody, human IgG1, V domains shown)
VH: B1 VH with E1Q, E6Q, K13Q, A75S, S78T, A92S
VL: DIVLTQSPASLAVSLGQRATISCRASESVEFSGTSLMQWYQQRPGLPPKLLIYAASNVESGVPARFSGSGSGTDFSLNIHPVEEDDIAMYFCQQSRKLPYTFGGGTKLEIN
B5: VHg2/VLg2 (antibody, human IgG1, V domains shown)
VH: B1 VH with E1Q, V2M, E6Q, V37I, A97T, Q115R
VL: DIQLTQSPSSLSASVGDRVTITCRASESVEFSGTSLMQWYQQKAGLAPKLLIYAASNVESGVPSRFSGSGSGTDFTLTISSLQPEDFGTYYCQQSRKLPYTFGQGTRLEIK
notes: human IgG1
B6: VHg1/VLg2 (antibody, human IgG1, V domains shown)
VH: B1 VH with E1Q, E6Q, K13Q, A75S, S78T, A92S
VL: B5 VL
notes: human IgG1
B7: VHg9/VLg1 (antibody, human IgG1, V domains shown)
VH: B1 VH
VL: B1 VL with I2V, A88V, Q104G, L108V
B8: VHg9/VLg6 (antibody, human IgG1, V domains shown)
VH: B1 VH
VL: DVVMTQSPPSLPVTPGEPASISCRASESVEFSGTSLMQWYLQKPGQSPQVLIYAASNVESGVPDRFSGSGSGTDFTLKISRVEAEDVGVYYCQQSRKLPYTFGQGTRLEIK
B9: VHg1/VLg5 (antibody, human IgG1, V domains shown)
VH: B1 VH with E1Q, E6Q, K13Q, A75S, S78T, A92S
VL: B2 VL with A9G, A19G, A64D, G72E, S81R, F87L, K107R
B10: VHg3/VLg5 (antibody, human IgG1, V domains shown)
VH: B1 VH with E6Q, T28K, V48L, T69I, A88V, A92G
VL: B2 VL with A9G, A19G, A64D, G72E, S81R, F87L, K107R
B11: VHg2/VLg11 (antibody, human IgG1, V domains shown)
VH: B1 VH with E1Q, V2M, E6Q, V37I, A97T, Q115R
VL: B1 VL
notes: human IgG1
B12: VHg3/VLg11 (antibody, human IgG1, V domains shown)
VH: B1 VH with E6Q, T28K, V48L, T69I, A88V, A92G
VL: B1 VL
notes: human IgG1
B13: VHg6/VLg12 (antibody, human IgG1, V domains shown)
VH: B1 VH with E1Q, V5Q, E6Q, K13Q, S49A, K76R, Q115R
VL: B2 VL
notes: human IgG1
B14: VHg10/VLg4 (antibody, human IgG1, V domains shown)
VH: B1 VH with K13Q, A75S, S78T
VL: B1 VL with I2V, N22S, G45R, P48L, K107R
notes: human IgG1
B15: VHg6/VLg2 (antibody, human IgG1, V domains shown)
VH: B1 VH with E1Q, V5Q, E6Q, K13Q, S49A, K76R, Q115R
VL: B5 VL
notes: human IgG1
B16: VHg10/VLg5 (antibody, human IgG1, V domains shown)
VH: B1 VH with K13Q, A75S, S78T
VL: B2 VL with A9G, A19G, A64D, G72E, S81R, F87L, K107R
notes: human IgG1
B17: VHg3/VLg13 (antibody, human IgG1, V domains shown)
VH: B1 VH with E6Q, T28K, V48L, T69I, A88V, A92G
VL: B5 VL with L4M, A44P, L46K, L77F, F87I, G88A, R107K
notes: human IgG1
B18: VHg6/VLg4 (antibody, human IgG1, V domains shown)
VH: B1 VH with E1Q, V5Q, E6Q, K13Q, S49A, K76R, Q115R
VL: B1 VL with I2V, N22S, G45R, P48L, K107R
notes: human IgG1
B19: VHg2/VLg12 (antibody, human IgG1, V domains shown)
VH: B1 VH with E1Q, V2M, E6Q, V37I, A97T, Q115R
VL: B2 VL
notes: human IgG1
B20: VHg10/VLg12 (antibody, human IgG1, V domains shown)
VH: B1 VH with K13Q, A75S, S78T
VL: B2 VL
notes: human IgG1
B21: VHg10/VLg11 (antibody, human IgG1, V domains shown)
VH: B1 VH with K13Q, A75S, S78T
VL: B1 VL
notes: human IgG1
B22: VHg3/VLg12 (antibody, human IgG1, V domains shown)
VH: B1 VH with E6Q, T28K, V48L, T69I, A88V, A92G
VL: B2 VL
notes: human IgG1

One assay addresses T1, human DR3 (TNFRSF25) expressed on cells (human, UniProt Q93038 25-417).
T1 sequence: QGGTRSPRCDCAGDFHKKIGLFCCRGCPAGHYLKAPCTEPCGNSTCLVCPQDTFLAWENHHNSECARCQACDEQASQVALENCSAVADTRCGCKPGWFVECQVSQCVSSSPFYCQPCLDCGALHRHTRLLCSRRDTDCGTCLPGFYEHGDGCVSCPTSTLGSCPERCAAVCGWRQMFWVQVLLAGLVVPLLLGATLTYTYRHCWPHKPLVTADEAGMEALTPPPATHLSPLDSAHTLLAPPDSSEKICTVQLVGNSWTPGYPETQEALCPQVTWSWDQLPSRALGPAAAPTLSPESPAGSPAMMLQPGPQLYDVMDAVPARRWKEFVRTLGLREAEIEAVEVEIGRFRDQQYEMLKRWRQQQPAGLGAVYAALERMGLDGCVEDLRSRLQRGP
Put plainly: cell-based or functional assay.
Turning to B1, the “EC50 (pM), DR3 Jurkat reporter” value amounted to 261 pM and the “Signal (FLU)” value was found to be 3.27e+06 FLU.
For B2 the same measures were 322 pM and 2.76e+06 FLU.
In the case of B3, the “Signal (FLU)” value worked out at 2.42e+06 FLU.
Still for that read-out and setting: in the case of B4 it was 2.43e+06 FLU.
For the molecule B5, the “EC50 (pM), DR3 Jurkat reporter” value turned out to be 103 pM and the “Signal (FLU)” value came to 2.5e+06 FLU.
The matching figures for B6: 336 pM and 2.44e+06 FLU.
Turning to B7, the “Signal (FLU)” value turned out to be 2.23e+06 FLU.
B8: the “Signal (FLU)” value was 2.32e+06 FLU.
Same read-out and setting: in the case of B9 it was 1.99e+06 FLU.
On the same count and under the same terms, to B10 belongs 2.43e+06 FLU.
Take B11: the “EC50 (pM), DR3 Jurkat reporter” value was 136 pM and the “Signal (FLU)” value is 2.9e+06 FLU.
For the molecule B12, the “EC50 (pM), DR3 Jurkat reporter” value was 1230 pM and the “Signal (FLU)” value turned out to be 2.38e+06 FLU.
For B13 the same measures were 134 pM and 2.47e+06 FLU.
Regarding B14, the “EC50 (pM), DR3 Jurkat reporter” value was determined as 570 pM and the “Signal (FLU)” value worked out at 3.17e+06 FLU.
The matching figures for B15: 118 pM and 2.44e+06 FLU.
For B16, the “EC50 (pM), DR3 Jurkat reporter” value came to 634 pM and the “Signal (FLU)” value was 3.08e+06 FLU.
For B17 the same measures were 1770 pM and 2.66e+06 FLU.
The matching figures for B18: 115 pM and 2.68e+06 FLU.
The matching figures for B19: 117 pM and 2.68e+06 FLU.
Turning to B20, the “EC50 (pM), DR3 Jurkat reporter” value is 132 pM and the “Signal (FLU)” value worked out at 3.56e+06 FLU.
For the molecule B21, the “EC50 (pM), DR3 Jurkat reporter” value came out at 245 pM and the “Signal (FLU)” value stood at 3.24e+06 FLU.
Consider B22, for which the “EC50 (pM), DR3 Jurkat reporter” value came out at 1480 pM and the “Signal (FLU)” value came to 2.6e+06 FLU.

Another assay has as its target T2, DR3-8i (human).
T2 construct: also called purified monomeric DR3-8i antigen protein
T2 chain: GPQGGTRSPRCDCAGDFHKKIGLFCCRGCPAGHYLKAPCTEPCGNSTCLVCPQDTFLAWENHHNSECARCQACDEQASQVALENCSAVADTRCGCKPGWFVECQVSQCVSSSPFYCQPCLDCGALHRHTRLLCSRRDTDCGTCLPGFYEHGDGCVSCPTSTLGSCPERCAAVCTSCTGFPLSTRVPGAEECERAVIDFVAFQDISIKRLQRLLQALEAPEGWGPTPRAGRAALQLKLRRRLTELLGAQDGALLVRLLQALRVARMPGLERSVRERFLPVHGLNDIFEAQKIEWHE
Nature of the assay: BLI, IgG captured on protein A, DR3-8i in solution; Average.
Molecule B1 displayed a Kd of 0.188 nM.
On the same count and under the same terms, to B2 belongs 0.0228 nM; to B5, 0.106 nM; to B6, 0.159 nM.
The same measure, in the same setting: to B11 belongs 0.0536 nM; to B12, 0.491 nM.
As to B13, the Kd worked out at 0.157 nM.
The molecule B14 returned an equilibrium dissociation constant (Kd) of 0.204 nM.
B15: the Kd amounted to 0.193 nM.
Still for that read-out and setting: in the case of B16 it was 0.246 nM; in that of B17, 0.427 nM; in that of B18, 0.198 nM.
On to B19, for which the Kd is 0.121 nM.
Molecule B20 gave an equilibrium dissociation constant (Kd) of 0.181 nM.
Same read-out and setting: in the case of B21 it was 0.205 nM; in that of B22, 0.4 nM.

For the next assay, the target named is T2, DR3-8i. Nature of the assay: BLI, IgG captured on protein A, DR3-8i in solution; Experiment 1.
On to B1, for which the Kd turned out to be 0.192 nM.
B2 showed a Kd of 0.001 nM.
Same read-out and setting: to B5 belongs 0.001 nM; to B6, 0.316 nM; to B11, 0.0636 nM.
On the same count and under the same terms, in the case of B12 it was 0.364 nM; in that of B13, 0.227 nM; in that of B14, 0.242 nM.
The same measure, in the same setting: in the case of B15 it was 0.227 nM; in that of B16, 0.233 nM.
With B17, the dissociation constant Kd was 0.464 nM.
Same read-out and setting: to B18 belongs 0.25 nM; to B19, 0.0644 nM.
Still for that read-out and setting: to B20 belongs 0.175 nM; to B21, 0.166 nM.
On the same count and under the same terms, to B22 belongs 0.39 nM.

The next assay deals with T2, DR3-8i. Nature of the assay: BLI, IgG captured on protein A, DR3-8i in solution; Experiment 2.
As for B1, the affinity, expressed as Kd, was 0.184 nM.
Still for that read-out and setting: in the case of B2 it was 0.0445 nM; in that of B5, 0.21 nM; in that of B6, 0.00202 nM.
Still for that read-out and setting: to B11 belongs 0.0435 nM; to B12, 0.618 nM; to B13, 0.0876 nM.
On the same count and under the same terms, in the case of B14 it was 0.167 nM.
In turn, B15 displayed a Kd of 0.159 nM.
B16 gave an equilibrium dissociation constant (Kd) of 0.259 nM.
The same measure, in the same setting: to B17 belongs 0.389 nM; to B18, 0.146 nM; to B19, 0.177 nM.
On the same count and under the same terms, to B20 belongs 0.188 nM.
The same measure, in the same setting: to B21 belongs 0.244 nM; to B22, 0.409 nM.

These data come from patent WO2025083273A1 (dated 2025).
